This is an account of results in US20260035463A1 (MINGHUI PHARMACEUTICAL HANGZHOU, published 2026).

For this experiment, the target named is T1, recombinant human PD-1 protein (human, UniProt Q15116 25-167, limits assumed).
T1 construct: The construct is not described; also called human recombinant PD-1
Nature of the experiment: screening of the anti-PD-1 phage display library; method not detailed.

T1 sequence (Q15116 25-167 limits assumed): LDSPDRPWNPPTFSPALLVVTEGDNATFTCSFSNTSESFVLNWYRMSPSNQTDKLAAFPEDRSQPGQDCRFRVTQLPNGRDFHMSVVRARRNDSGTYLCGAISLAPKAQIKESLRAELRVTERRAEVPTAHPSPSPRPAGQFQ

B1: Anti-PD-1 sdAb VHH (VHH)
VHH: QVQLVESGGGLVQPGGSLRLSCATSGSRRSIYAMGWFRQAPGKGLEFVAGIGWAYATTYYADSVKGRFTISRDNTKNTLYLQMNSLRAEDTAVYYCAADLDHSGFDYWGQGTLVTVSS
notes: Obtained from an alpaca phage display library; also called anti-PD-1 VHH antibody; VHH single-domain antibody
Regarding B1, the binding result is given as “binds”.
